Data published in PMC3098174.
Read-outs that look alike come from different tables or passages of the source.

Tests used:
[1] = molecular target: Stingray Pancreatic Lipase (Dasyatis pastinaca) (common stingray Dasyatis pastinaca); test: lipase activity titration with colipase, Scatchard plot; apparent Kd from the slope of Scatchard plots; lipase (2.1 nM) with increasing amounts of colipase, emulsified olive oil as substrate, 6 mM NaTDC, pH 8.5, 37°C, pH-stat
[2] = molecular target: Stingray Pancreatic Lipase (Dasyatis pastinaca) (common stingray Dasyatis pastinaca)
[3] = molecular target: dromedary pancreatic lipase (dromedary)
[4] = molecular target: Stingray Pancreatic Lipase (Dasyatis pastinaca) (common stingray Dasyatis pastinaca); remark: listed apart in the source
[5] = molecular target: turkey pancreatic lipase (turkey)
[6] = molecular target: chicken pancreatic lipase (chicken)
[7] = molecular target: dromedary pancreatic lipase (dromedary); test: lipase activity titration with colipase, Scatchard plot; apparent Kd from the slope of Scatchard plots; lipase (2.1 nM) with increasing amounts of colipase, emulsified olive oil as substrate, 6 mM NaTDC, pH 8.5, 37°C, pH-stat
[8] = molecular target: Stingray Pancreatic Lipase (Dasyatis pastinaca) (common stingray Dasyatis pastinaca); test: as above; remark: listed apart in the source
[9] = molecular target: turkey pancreatic lipase (turkey); test: as above
[10] = molecular target: chicken pancreatic lipase (chicken); test: as above

Sequence of Stingray Pancreatic Lipase (Dasyatis pastinaca) (common stingray Dasyatis pastinaca) (A0A059TA26 entry or part of it): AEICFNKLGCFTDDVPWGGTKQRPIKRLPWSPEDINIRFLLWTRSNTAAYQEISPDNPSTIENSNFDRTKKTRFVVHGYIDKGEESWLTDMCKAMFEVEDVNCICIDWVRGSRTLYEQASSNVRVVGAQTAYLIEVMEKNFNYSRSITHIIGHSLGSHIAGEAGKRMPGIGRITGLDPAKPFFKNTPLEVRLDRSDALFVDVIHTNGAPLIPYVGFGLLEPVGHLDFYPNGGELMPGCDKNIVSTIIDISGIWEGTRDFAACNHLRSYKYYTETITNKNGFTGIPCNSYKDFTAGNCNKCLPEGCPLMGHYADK

| Substance | Kd [1] | kcat/Kd of SPL activated by colipase (olive oil emulsion, 6 mM NaTDC) (S^-1 M^-1 10^-9) [2] | kcat/Kd of lipase activated by stingray colipase (olive oil emulsion, 6 mM NaTDC) (S^-1 M^-1 10^-9) [3] | kcat/Kd of lipase activated by stingray colipase (olive oil emulsion, 6 mM NaTDC) (S^-1 M^-1 10^-9) [4] | kcat/Kd of lipase activated by stingray colipase (olive oil emulsion, 6 mM NaTDC) (S^-1 M^-1 10^-9) [5] | kcat/Kd of lipase activated by stingray colipase (olive oil emulsion, 6 mM NaTDC) (S^-1 M^-1 10^-9) [6] | Kd [7] | Kd [8] | Kd [9] | Kd [10] |
| --- | --- | --- | --- | --- | --- | --- | --- | --- | --- | --- |
| dromedary pancreatic colipase (natural protein) | 2.2 nM | 1140 | – | – | – | – | – | – | – | – |
| chicken pancreatic colipase (natural protein) | 3.9 nM | 576 | – | – | – | – | – | – | – | – |
| stingray pancreatic colipase (Dasyatis pastinaca) (natural protein) | 1.2 nM | 2070 | 930 | 2070 | 946 | 611 | 3 nM | 1.15 nM | 2.9 nM | 4.5 nM |
| turkey pancreatic colipase (natural protein) | 3.6 nM | 599 | – | – | – | – | – | – | – | – |
